In patent publication US20150218534A1, “MODIFIED DNA POLYMERASE” (TOYOBO CO., LTD., priority 2012, published 2015):
Residue numbers refer to the chain shown, from its start. Names may count otherwise.

B1: KOD P36R: modified KOD DNA polymerase with P36R (protein, listed as Thermococcus kodakaraensis)
chain: MILDTDYITEDGKPVIRIFKKENGEFKIEYDRTFERYFYALLKDDSAIEEVKKITAERHGTVVTVKRVEKVQKKFLGRPVEVWKLYFTHPQDVPAIRDKIREHPAVIDIYEYDIPFAKRYLIDKGLVPMEGDEELKMLAFDIETLYHEGEEFAEGPILMISYADEEGARVITWKNVDLPYVDVVSTEREMIKRFLRVVKEKDPDVLITYNGDNFDFAYLKKRCEKLGINFALGRDGSEPKIQRMGDRFAVEVKGRIHFDLYPVIRRTINLPTYTLEAVYEAVFGQPKEKVYAEEITTAWETGENLERVARYSMEDAKVTYELGKEFLPMEAQLSRLIGQSLWDVSRSSTGNLVEWFLLRKAYERNELAPNKPDEKELARRRQSYEGGYVKEPERGLWENIVYLDFRSLYPSIIITHNVSPDTLNREGCKEYDVAPQVGHRFCKDFPGFIPSLLGDLLEERQKIKKKMKATIDPIERKLLDYRQRAIKILANSYYGYYGYARARWYCKECAESVTAWGREYITMTIKEIEEKYGFKVIYSDTDGFFATIPGADAETVKKKAMEFLKYINAKLPGALELEYEGFYKRGFFVTKKKYAVIDEEGKITTRGLEIVRRDWSEIAKETQARVLEALLKDGDVEKAVRIVKEVTEKLSKYEVPPEKLVIHEQITRDLKDYKATGPHVAVAKRLAARGVKIRPGTVISYIVLKGSGRIGDRAIPFDEFDPTKHKYDAEYYIENQVLPAVERILRAFGYRKEDLRYQKTRQVGLSAWLKPKGT
B2: KOD V93Q: modified KOD DNA polymerase with V93Q (protein, listed as Thermococcus kodakaraensis)
chain: B1 chain with R36P, V93Q
B3: KOD V93K: modified KOD DNA polymerase with V93K (protein, listed as Thermococcus kodakaraensis)
chain: B1 chain with R36P, V93K
B4: KOD V93R: modified KOD DNA polymerase with V93R (protein, listed as Thermococcus kodakaraensis)
chain: B1 chain with R36P, V93R
B5: KOD P36H/V93K: modified KOD DNA polymerase with P36H and V93K (protein, listed as Thermococcus kodakaraensis)
chain: B1 chain with R36H, V93K

Each molecule was assayed on 1.3 kbp, 2.8 kbp, and 3.6 kbp of human β-globin (assay: Amplification of long-chain DNA in PCR using dUTP). Details: dTTP replaced by dUTP, 35 cycles.
Type: biochemical
Design: key to Results of PCR in the presence of dUTP 1.3 kbp / Results of PCR in the presence of dUTP 2.8 kbp / Results of PCR in the presence of dUTP 3.6 kbp: A: Amplified; B: Amplified (faint band); C: Not amplified
Outline: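 Enzymes (1 U, premixed with KOD antibody) amplified 1.3, 2.8 and 3.6 kbp β-globin from 10 ng human genomic DNA with 2 mM dNTPs having dUTP in place of dTTP, 1.5 mM MgSO4, 35 cycles (98° C. 10 s, 65° C. 30 s, 68° C. ~1 min/kbp). Taq control: 2.5 U, 94° C. denaturation. Yield judged by ethidium-stained agarose gel.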
For B1, the “Results of PCR in the presence of dUTP 1.3 kbp” value (shortened to “Results of PCR … of dUTP 1.3 kbp”) was “B”, the “Results of PCR in the presence of dUTP 2.8 kbp” value (“Results of PCR … of dUTP 2.8 kbp” below) was “B” and the “Results of PCR in the presence of dUTP 3.6 kbp” value (from here on “Results of PCR … of dUTP 3.6 kbp”) was “B”.
For B2, the “Results of PCR … of dUTP 1.3 kbp” value was “C”, the “Results of PCR … of dUTP 2.8 kbp” value was “C” and the “Results of PCR … of dUTP 3.6 kbp” value was “C”.
With B3 the “Results of PCR … of dUTP 1.3 kbp” value was “B”, the “Results of PCR … of dUTP 2.8 kbp” value was “B” and the “Results of PCR … of dUTP 3.6 kbp” value was “B”.
For B4, the “Results of PCR … of dUTP 1.3 kbp” value was “B”, the “Results of PCR … of dUTP 2.8 kbp” value was “B” and the “Results of PCR … of dUTP 3.6 kbp” value was “B”.
B5 was tested, and the “Results of PCR … of dUTP 1.3 kbp” value was “A”, the “Results of PCR … of dUTP 2.8 kbp” value was “A” and the “Results of PCR … of dUTP 3.6 kbp” value was “C”.

These molecules were tested on human genomic DNA (about 1.3 kb) with dUTP added (assay: Evaluation of uracil (dUTP) sensitivity by PCR with dUTP added to the reaction). Details: closer to 0 = stronger sensitivity to dUTP, closer to 10 = lower sensitivity; summary of Examples 1 to 3.
Type: biochemical
Outline: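 Each enzyme (1 U) amplified about 1.3 kb from 10 ng human genomic DNA in KOD-Plus-Ver. 2 buffer with 1.5 mM MgSO4 and 0.2 mM dNTPs. dUTP was added at final 0.5, 5, 50, 100 and 200 μM, over 30 cycles of 98/65/68° C. Sensitivity is the dUTP level still yielding product on ethidium bromide-stained agarose gel.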
For B1, the “Evaluation of dUTP resisitance on a 11-point scale” value (shortened to “Evaluation of dUTP resisitance”) was 5.
B2 was tested, and the “Evaluation of dUTP resisitance” value was 3.
With B3 the “Evaluation of dUTP resisitance” value was 6.
B4 was tested, and the “Evaluation of dUTP resisitance” value was 5.
B5 was tested, and the “Evaluation of dUTP resisitance” value was 7.

Same assay, conditions: dUTP added to 0.5, 5, 50, 100, 200 μM; about 1.3 kb, 30 cycles, 1 U enzyme
With B1 the “dUTP resistance” value was >200 µM.
For B2, the “dUTP resistance” value was 100 µM.
B3 was tested, and the “dUTP resistance” value was >200 µM.
For B4, the “dUTP resistance” value was >200 µM.
With B5 the “dUTP resistance” value was >200 µM.

Same assay, conditions: some amount of dUTP added
In the case of B1, the “PCR products on addition of dUTP” value is reported as “PCR products were confirmed”.
B2 was tested, and the “PCR products on addition of dUTP” value was “PCR products were confirmed”.
In the case of B3, the “PCR products on addition of dUTP” value is reported as “PCR products were confirmed”.
With B4 the “PCR products on addition of dUTP” value was “PCR products were confirmed”.
